Source: US20260043041A1, “HSL PROTEIN, GENE, VECTOR, CELL, COMPOSITION AND USE THEREOF, AND METHOD FOR IMPROVING HERBICIDE RESISTANCE OF CROPS” (CENTRAL CHINA NORMAL UNIVERSITY, priority 2022, published 2026)

Key:
[1] = molecular target: T1, rice OsHSL1 (SEQ ID NO: 1) mutant OsHSL1_F140H/L204F/F298L/I335A (Oryza sativa, UniProt A0A7G1K9G4, F140H/F298L/I335A/L204F); assay: Enzyme kinetic parameters with HPPD inhibitors as substrate (HPLC); assay type: biochemical; settings: compared with OsHSL1 wild type; close to the OsHIS1 wild type
T1 construct: isolated enzyme, HPLC assay
T1 sequence (A0A7G1K9G4 entry or part of it F140H/L204F/F298L/I335A): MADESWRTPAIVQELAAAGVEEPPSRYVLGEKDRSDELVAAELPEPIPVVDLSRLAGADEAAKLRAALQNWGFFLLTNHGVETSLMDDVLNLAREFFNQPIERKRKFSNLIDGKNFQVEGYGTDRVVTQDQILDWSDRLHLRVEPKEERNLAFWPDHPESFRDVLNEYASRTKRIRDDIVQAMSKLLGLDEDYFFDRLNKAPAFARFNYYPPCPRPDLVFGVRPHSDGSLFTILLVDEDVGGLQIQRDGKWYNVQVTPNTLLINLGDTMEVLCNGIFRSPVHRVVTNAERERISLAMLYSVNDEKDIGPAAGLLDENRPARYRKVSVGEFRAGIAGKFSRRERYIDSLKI
Description: (§1) High Performance Liquid Chromatography (HPLC) was used to test OsHIS1 wild-type protein (the amino acid sequence of OsHIS1 wild-type is shown as SEQ ID NO 2, and the corresponding nucleotide sequence is shown as SEQ ID NO 21), the enzyme kinetic parameters of OsHSL1 wild-type protein and some OsHSL1 mutant proteins with higher reactivity and HPPD inhibitors, and the specific results are shown in Table 9-Table 12. […] Each sample was replicated three times. • e.

[2] = tested on: Cc1c(C(=O)c2cnn(C)c2O)ccc(S(C)(=O)=O)c1C1=NOCC1; assay: as above; assay type: biochemical, rice; settings: other: pH 7.0, 30° C., about 20 min
Description: as §1

[3] = tested on: CS(=O)(=O)c1ccc(C(=O)C2C(=O)CCCC2=O)c([N+](=O)[O-])c1; assay: as above; assay type: biochemical, rice; settings: other: pH 7.0, 30° C., about 20 min
Description: as §1

[4] = tested on: Cc1ccccc1-n1c(=O)c2c(C)c(C(=O)C3=C(O)CCCC3=O)ccc2n(C)c1=O; assay: as above; assay type: biochemical, rice; settings: other: pH 7.0, 30° C., about 20 min
Description: as §1

[5] = substrate: CS(=O)(=O)c1ccc(C(=O)C2C(=O)CCCC2=O)c([N+](=O)[O-])c1; assay: as above; assay type: biochemical, rice; settings: other: pH 7.0, 30° C., about 20 min; remark: listed apart in the source
Description: as §1

[6] = substrate: Cc1ccccc1-n1c(=O)c2c(C)c(C(=O)C3=C(O)CCCC3=O)ccc2n(C)c1=O; assay: as above; assay type: biochemical, rice; settings: other: pH 7.0, 30° C., about 20 min; remark: listed apart in the source
Description: as §1

[7] = Catalytic activity of HSL proteins on HPPD inhibitors (HPLC, substrate consumption); assay type: biochemical; settings: 30° C., 10 h, protein 0.5 mg/mL; for Catalytic efficiency (%) Compound A: substrate Compound A 50 μM; for Catalytic efficiency (%) benzobicyclon technical: substrate benzobicyclon technical 50 μM; for Catalytic efficiency (%) Mesotrione: substrate mesotrione 50 μM; for Catalytic efficiency (%) methyl-benquitrione: substrate methyl-benquitrione 50 μM; for Catalytic efficiency (%) pyraquinate technical: substrate pyraquinate technical 50 μM; for Catalytic efficiency (%) tefuryltrione: substrate tefuryltrione 50 μM; for Catalytic efficiency (%) tembotrione: substrate tembotrione 50 μM
Protocol: (§2) Each sample was replicated three times. • e.
(§3) Control: refers to the addition of inhibitors to the reaction system, but not the addition of enzymes, which is regarded as the substrate surplus when the inhibitor is not catalyzed.
(§4) Sample: in the enzyme reaction system, the same volume and the same concentration (50 μM) of the inhibitor was added, and the catalytic efficiency of the enzyme to the inhibitor was observed.
(§5) Catalytic efficiency=(1−(peak area of substrate in sample)/(peak area of substrate in control))×100%.

[8] = assay type: biochemical; settings: for Catalytic efficiency (%) topramezone: substrate topramezone 50 μM, 30° C., 10 h, protein 0.5 mg/mL
Protocol: as §2, §3, §4, §5

[9] = Enzyme kinetic parameter study (HPLC, Michaelis-Menten fit); assay type: biochemical; settings: statement on Table 12
Description: as §1

Molecule	Catalytic efficiency (%) Compound A [7]	Catalytic efficiency (%) benzobicyclon technical [7]	Catalytic efficiency (%) Mesotrione [7]	Catalytic efficiency (%) methyl-benquitrione [7]	Catalytic efficiency (%) pyraquinate technical [7]	Catalytic efficiency (%) tefuryltrione [7]	Catalytic efficiency (%) tembotrione [7]	Catalytic efficiency (%) topramezone [8]	also measured
CS(=O)(=O)c1ccc(C(=O)C2C(=O)CCCC2=O)c([N+](=O)[O-])c1 [mesotrione]	–	–	–	–	–	–	–	–	affinity and catalytic efficiency (in words) [1]: better affinity and catalytic efficiency
rice OsHSL1 (SEQ ID NO: 1) mutant OsHSL1_I335F (Oryza sativa Japonica Group; I335F)	–	–	–	–	–	–	–	–	Km [2]: 48.4211 µM; kcat [2]: 0.0057 s⁻¹
rice OsHSL1 (SEQ ID NO: 1) mutant OsHSL1_F140H/L204F/F298L/I335A (Oryza sativa Japonica Group; F140H/F298L/I335A/L204F)	–	–	–	–	–	–	–	–	Km [3]: 23.4659 µM; kcat [3]: 0.0083 s⁻¹; Km [4]: 22.6001 µM; kcat [4]: 0.0106 s⁻¹
rice OsHSL1 wild type, SEQ ID NO: 1 (Oryza sativa Japonica Group)	–	–	–	–	–	–	–	–	Km [2]: 44.0732 µM; kcat [2]: 0.0011 s⁻¹
CS(=O)(=O)c1ccc(C(=O)C2=C(Sc3ccccc3)C3CCC(C3)C2=O)c(Cl)c1 (stereo not drawn) [benzobicyclon technical, benzobicyclon]	–	–	–	–	–	–	–	–	affinity and catalytic efficiency (in words) [1]: better affinity and catalytic efficiency
rice OsHIS1 wild type, SEQ ID NO: 2 (Oryza sativa Japonica Group) (protein, isolated enzyme, HPLC substrate-consumption assay with Fe(II), ascorbate and 2-oxoglutarate) MADESWRAPAIVQELAAAGVEEPPSRYLLREKDRSDVKLVAAELPEPLPVVDLSRLDGAEEATKLRVALQNWGFFLLTNHGVEASLMDSVMNLSREFFNQPIERKQKFSNLIDGKNFQIQGYGTDRVVTQDQILDWSDRLHLRVEPKEEQDLAFWPDHPESFRDVLNKYASGTKRIRDDIIQAMAKLLELDEDYFLDRLNEAPAFARFNYYPPCPRPDLVFGIRPHSDGTLLTILLVDKDVSGLQVQRDGKWSNVEATPHTLLINLGDTMEVMCNGIFRSPVHRVVTNAEKERISLAMLYSVNDEKDIEPAAGLLDENRPARYRKVSVEEFRAGIFGKFSRGERYIDSLRI	–	–	–	–	–	–	–	–	Km [5]: 5.5811 µM; kcat [5]: 0.05957 s⁻¹; Km [6]: 16.2456 µM; kcat [6]: 0.0106 s⁻¹
rice OsHSL1 wild type, SEQ ID NO: 1 (Oryza sativa Japonica Group) (protein, isolated enzyme, HPLC substrate-consumption assay with Fe(II), ascorbate and 2-oxoglutarate) MADESWRTPAIVQELAAAGVEEPPSRYVLGEKDRSDELVAAELPEPIPVVDLSRLAGADEAAKLRAALQNWGFFLLTNHGVETSLMDDVLNLAREFFNQPIERKRKFSNLIDGKNFQVEGYGTDRVVTQDQILDWSDRLFLRVEPKEERNLAFWPDHPESFRDVLNEYASRTKRIRDDIVQAMSKLLGLDEDYFFDRLNKAPALARFNYYPPCPRPDLVFGVRPHSDGSLFTILLVDEDVGGLQIQRDGKWYNVQVTPNTLLINLGDTMEVLCNGIFRSPVHRVVTNAERERISLAMFYSVNDEKDIGPAAGLLDENRPARYRKVSVGEFRAGIIGKFSRRERYIDSLKI	0%	46%	40%	0%	17%	100%	89%	100%	Km [5]: 27.6770 µM; kcat [5]: 0.0002 s⁻¹; Catalytic efficiency (%) 30 min ([8]; topramezone degradation, reaction time 30 min): 79%; Catalytic efficiency (%) 60 min ([8]; topramezone degradation, reaction time 60 min): 86%; Catalytic efficiency (%) 120 min ([8]; topramezone degradation, reaction time 120 min): 93%; Catalytic efficiency (%) 300 min ([8]; topramezone degradation, reaction time 300 min): 98%; Catalytic efficiency (%) 600 min ([8]; topramezone degradation, reaction time 600 min): 100%
OsHSL1_F140H/L204F/F298L/I335W: SEQ ID NO.1 with F140 to histidine, L204 to phenylalanine, F298 to leucine, I335 to tryptophan (protein) MADESWRTPAIVQELAAAGVEEPPSRYVLGEKDRSDELVAAELPEPIPVVDLSRLAGADEAAKLRAALQNWGFFLLTNHGVETSLMDDVLNLAREFFNQPIERKRKFSNLIDGKNFQVEGYGTDRVVTQDQILDWSDRLHLRVEPKEERNLAFWPDHPESFRDVLNEYASRTKRIRDDIVQAMSKLLGLDEDYFFDRLNKAPAFARFNYYPPCPRPDLVFGVRPHSDGSLFTILLVDEDVGGLQIQRDGKWYNVQVTPNTLLINLGDTMEVLCNGIFRSPVHRVVTNAERERISLAMLYSVNDEKDIGPAAGLLDENRPARYRKVSVGEFRAGIWGKFSRRERYIDSLKI	98%	100%	88%	90%	17%	70%	55%	0%	–
OsHSL1_L204F/F298L/I335F: SEQ ID NO.1 with L204 to phenylalanine, F298 to leucine, I335 to phenylalanine (protein, listed as Oryza sativa) MADESWRTPAIVQELAAAGVEEPPSRYVLGEKDRSDELVAAELPEPIPVVDLSRLAGADEAAKLRAALQNWGFFLLTNHGVETSLMDDVLNLAREFFNQPIERKRKFSNLIDGKNFQVEGYGTDRVVTQDQILDWSDRLFLRVEPKEERNLAFWPDHPESFRDVLNEYASRTKRIRDDIVQAMSKLLGLDEDYFFDRLNKAPAFARFNYYPPCPRPDLVFGVRPHSDGSLFTILLVDEDVGGLQIQRDGKWYNVQVTPNTLLINLGDTMEVLCNGIFRSPVHRVVTNAERERISLAMLYSVNDEKDIGPAAGLLDENRPARYRKVSVGEFRAGIFGKFSRRERYIDSLKI	47%	100%	56%	35%	52%	94%	0%	1%	–
OsHSL1_F140H/L204F/I335F: SEQ ID NO.1 with F140 to histidine, L204 to phenylalanine, I335 to phenylalanine (protein) MADESWRTPAIVQELAAAGVEEPPSRYVLGEKDRSDELVAAELPEPIPVVDLSRLAGADEAAKLRAALQNWGFFLLTNHGVETSLMDDVLNLAREFFNQPIERKRKFSNLIDGKNFQVEGYGTDRVVTQDQILDWSDRLHLRVEPKEERNLAFWPDHPESFRDVLNEYASRTKRIRDDIVQAMSKLLGLDEDYFFDRLNKAPAFARFNYYPPCPRPDLVFGVRPHSDGSLFTILLVDEDVGGLQIQRDGKWYNVQVTPNTLLINLGDTMEVLCNGIFRSPVHRVVTNAERERISLAMFYSVNDEKDIGPAAGLLDENRPARYRKVSVGEFRAGIFGKFSRRERYIDSLKI	35%	100%	89%	23%	2%	100%	36%	40%	–
OsHSL1_L204F/F298L/I335A: three-point mutant OsHSL1_L204F/F298L/I335A containing I335; not listed in Table 2 (protein) MADESWRTPAIVQELAAAGVEEPPSRYVLGEKDRSDELVAAELPEPIPVVDLSRLAGADEAAKLRAALQNWGFFLLTNHGVETSLMDDVLNLAREFFNQPIERKRKFSNLIDGKNFQVEGYGTDRVVTQDQILDWSDRLFLRVEPKEERNLAFWPDHPESFRDVLNEYASRTKRIRDDIVQAMSKLLGLDEDYFFDRLNKAPAFARFNYYPPCPRPDLVFGVRPHSDGSLFTILLVDEDVGGLQIQRDGKWYNVQVTPNTLLINLGDTMEVLCNGIFRSPVHRVVTNAERERISLAMLYSVNDEKDIGPAAGLLDENRPARYRKVSVGEFRAGIAGKFSRRERYIDSLKI	–	–	–	–	–	–	–	–	affinity and catalytic efficiency to pyraquinate technical versus wild types (in words) [9]: superior to that of OsHIS1 wild type and OsHSL1 wild type
